Data published in PMC4212957, “The serodominant secreted effector protein of Salmonella, SseB, is a strong CD4 antigen containing an immunodominant epitope presented by diverse HLA class II alleles” (Immunology, 2014).

Experiments:
HLA-DRB1*01:01 = HLA-DRB1*01:01 (Homo sapiens, UniProt P01903+P01911, A100R/D57E/F55L/F60I/F76Y/I96L/L162R/M171V/P40L/Q125E/R42F/V115G/Y59C); details: competitive ELISA; ratio IC50 of peptide / IC50 of reference peptide HA 306–318; lower = higher affinity; ratio 20 or less high, 20–100 moderate; three independent experiments
HLA-DRB1*11:01 = HLA-DRB1*11:01 (Homo sapiens, UniProt P01903+P01911, A100R/A169T/A87E/I96F/K41T/L162R/M171V/P40S/Q125H/Q178H/Q39Y/Q99D/R42S/S66Y/T262R/V115G/W38E); details: competitive ELISA; ratio IC50 of peptide / IC50 of reference peptide HA 306–318; lower = higher affinity; ratio 20 or less high, 20–100 moderate; three independent experiments
HLA-DRB1*15:02 = biological target: T1, HLA-DRB1*15:02 (Homo sapiens, UniProt P01903+P01911, V115G); assay: Peptide/HLA-DR binding, competitive ELISA; details: ratio IC50 of peptide / IC50 of reference peptide TFR 607–620, lower = higher affinity, ratio 20 or less high, 20–100 moderate, three independent experiments
T1 construct: HLA-DR heterodimers were purified from homozygous Epstein–Barr virus B-lymphoblastoid cell lines; host or cells: homozygous EBV B-lymphoblastoid cell line
Method: (§1) HLA-DR heterodimers were purified from homozygous Epstein–Barr virus B-lymphoblastoid cell lines (HPA Culture Collections, Salisbury, UK) by affinity chromatography with the monomorphic HLA-DRα monoclonal antibody, L243.[29],[30] Binding of the SseB peptide panel to the HLA-DR molecules HLA-DRB1*01:01, 03:01, 04:01, 07:01, 09:01, 11:01, 12:02, 15:01, 15:02 was assessed by competitive ELISA, as previously described, using an automated workstation.[29],[30] We evaluated the peptide concentration able to prevent binding of 50% of the labelled peptide (IC50). Data were expressed as relative affinity: ratio of the IC50 of the peptide to the IC50 of the reference peptide, which is a high binder to the HLA class II molecule. Unlabelled forms of the biotinylated peptides were used as reference peptides.

HLA-DRB1*09:01 = biological target: T2, HLA-DRB1*09:01 (Homo sapiens, UniProt P01903+P01911, A100R/A103E/D57H/D86V/F55Y/F60I/F76Y/I96F/K127E/L162R/M171V/P40D/Q125H/Q99R/R33Q/R42F/S133A/S66N/T210M/V115G/W38K/Y107V/Y59G/Y89S); assay: Peptide/HLA-DR binding, competitive ELISA; details: ratio IC50 of peptide / IC50 of reference peptide CTP 427–441, lower = higher affinity, ratio 20 or less high, 20–100 moderate, three independent experiments
T2 construct: HLA-DR heterodimers were purified from homozygous Epstein–Barr virus B-lymphoblastoid cell lines; host or cells: homozygous EBV B-lymphoblastoid cell line
Method: as §1

HLA-DRB1*03:01 = biological target: T3, HLA-DRB1*03:01 (Homo sapiens, UniProt P01903+P01911, A100K/A102G/A103R/A169T/F55Y/I96L/K41T/L162R/M171V/P40S/Q125H/Q178H/Q39Y/R42S/S66N/T106N/T262R/W38E/Y61H); assay: Peptide/HLA-DR binding, competitive ELISA; details: ratio IC50 of peptide / IC50 of reference peptide MT2-16, lower = higher affinity, ratio 20 or less high, 20–100 moderate, three independent experiments
T3 construct: HLA-DR heterodimers were purified from homozygous Epstein–Barr virus B-lymphoblastoid cell lines; host or cells: homozygous EBV B-lymphoblastoid cell line
Method: as §1

HLA-DRB1*15:01 = biological target: T4, HLA-DRB1*15:01 (Homo sapiens, UniProt P01903+P01911); assay: Peptide/HLA-DR binding, competitive ELISA; details: ratio IC50 of peptide / IC50 of reference peptide A3 152–166, lower = higher affinity, ratio 20 or less high, 20–100 moderate, three independent experiments
T4 construct: HLA-DR heterodimers were purified from homozygous Epstein–Barr virus B-lymphoblastoid cell lines; host or cells: homozygous EBV B-lymphoblastoid cell line
Method: as §1

HLA-DRB1*12:02 = HLA-DRB1*12:02 (Homo sapiens, UniProt P01903+P01911, A100R/A169T/D57E/D86V/F55L/H45Y/I96F/K41T/L162R/M171V/P40S/Q125H/Q178H/Q39Y/Q99D/R42G/S66L/T262R/V114A/V67L/W38E/Y59H/Y61H/Y89S); assay: Peptide/HLA-DR binding, competitive ELISA; details: ratio IC50 of peptide / IC50 of reference peptide TFR 141–155, lower = higher affinity, ratio 20 or less high, 20–100 moderate, three independent experiments
Method: as §1

HLA-DRB1*04:01 = HLA-DRB1*04:01 (Homo sapiens, UniProt P01903+P01911, A100K/A169T/F76Y/I96L/K127E/L162R/M171V/N62H/P40V/Q125Y/R42H/S133A/S149N/S66Y/V115G/V209L/W38E); details: competitive ELISA; ratio IC50 of peptide / IC50 of reference peptide HA 306–318; lower = higher affinity; ratio 20 or less high, 20–100 moderate; three independent experiments
HLA-DRB1*07:01 = HLA-DRB1*07:01 (Homo sapiens, UniProt P01903+P01911, A100R/A102G/A103Q/D57E/D86V/E43K/F76Y/K127E/L162R/M171V/P40G/Q125H/Q99D/R33Q/R42Y/R54Q/S133A/S66F/T210M/V115G/Y107V/Y59L/Y89S); details: competitive ELISA; ratio IC50 of peptide / IC50 of reference peptide HA 306–318; lower = higher affinity; ratio 20 or less high, 20–100 moderate; three independent experiments
[1] = system: draining lymph node cells of HLA-DR4 transgenic mice; assay: Murine IFN-γ ELISpot, HLA-DR4 transgenic mice primed with SseB; details: mouse, in vivo
From the text: Mice transgenic for HLA-DR1 (that is, HLA-DRA1*0101/HLA-DRB1*0101) and HLA-DR4 (that is, HLA-DRA1*0101/HLA-DRB1*0401)[24]–[26] were bred and housed in the Centre for Biological Services at the Hammersmith campus, Imperial College London, UK, in accordance with Home Office regulations and College ethics review. Both transgenic lines are maintained on a C57BL/6 background as homozygotes for knockout of murine MHC Class II H2-Aβ.[27]
HLA-DR1 or HLA-DR4 transgenic mice were primed, by subcutaneous injection into the footpad, with 25 μg of recombinant SseB protein administered as a 1 : 1 emulsion with TiterMax® Gold (CytRx Corporation, Los Angeles, CA). Ten days after priming, popliteal draining lymph nodes were harvested and stimulated, in triplicate, at 2 × 10^5 cells per well with 25 μg of SseB peptide or recombinant protein in pre-coated murine IFN-γ ELISpot plates (2BScientific, Upper Heyford, Oxfordshire, UK). Culture medium was RPMI-1640 containing 2 mM L-glutamine, 50 U/ml penicillin G, 50 μg/ml streptomycin sulphate, 50 μM β-mercaptoethanol and 10% fetal calf serum. Cells were cultured at 37° and in 5% CO2 for 72 hr before assay development using a biotinylated anti-IFN-γ antibody, a horseradish peroxidase detection antibody and TMB substrate (2BScientific). Developed plates were left to dry before spot counting using an AID ELISpot reader (Autoimmun Diagnostika GMBH). Positive epitopes for a given transgenic line were defined as those where more than half of assayed animals gave a greater number of spot-forming cells than 2 SD over the mean of the no protein/peptide control.
Fig 1 Definition of HLA-DR specific T-cell epitopes in DR1 and DR4 transgenic mice. (a) HLA-DR1 (n = 5) and (b) HLA-DR4 (n = 6) mice were footpad primed with ssEB protein in combination with TiterMax® Gold adjuvant. Draining lymph node (DLN) cells were assayed by ELISpot at day 10 for interferon-γ (IFN-γ) T-cell responses to ssEB peptides and protein. A peptide was defined as containing a T-cell epitope for DR1 or DR4 HLA molecules if more than half of the mice assayed gave a greater number of spot-forming cells than 2 SD over the mean of the no peptide/protein control. The 2 SD value for each transgenic line is shown by a dotted line.

Substance	Relative binding affinity of peptide to HLA-DR molecules DRB1*0101 (HLA-DRB1*01:01)	Relative binding affinity of peptide to HLA-DR molecules DRB1*1101 (HLA-DRB1*11:01)	Relative binding affinity of peptide to HLA-DR molecules DRB1*1502 (HLA-DRB1*15:02)	Relative binding affinity of peptide to HLA-DR molecules DRB1*0901 (HLA-DRB1*09:01)	Relative binding affinity of peptide to HLA-DR molecules DRB1*0301 (HLA-DRB1*03:01)	Relative binding affinity of peptide to HLA-DR molecules DRB1*1501 (HLA-DRB1*15:01)	Relative binding affinity of peptide to HLA-DR molecules DRB1*1202 (HLA-DRB1*12:02)	Relative binding affinity of peptide to HLA-DR molecules DRB1*0401 (HLA-DRB1*04:01)	Relative binding affinity of peptide to HLA-DR molecules DRB1*0701 (HLA-DRB1*07:01)	IFN-γ ELISpot recall response / CD4 epitope in HLA-DR4 transgenic mice [1]
10: SseB overlapping library peptide, residues 91–110 (GDAKTKEEVPEDVIKYMRDN) [Peptide 10]	> 4149	> 278	> 3 333	> 689	> 119	58	> 136	> 145	87	–
12: SseB overlapping library peptide, residues 111–130 (GILIDGMTIDDYMAKYGDHG) [Peptide 12]	> 4149	> 278	1 826	> 689	18	12	105	> 145	167	–
13: SseB overlapping library peptide, residues 121–140 (DYMAKYGDHGKLDKGGLQAI) [Peptide 13]	2958	> 278	2 000	> 689	> 119	12	> 136	> 145	> 336	–
14: SseB overlapping library peptide, residues 131–150 (KLDKGGLQAIKAALDNDANR) [Peptide 14]	335	> 278	> 3 333	50	> 119	10	71	13	17	CD4 epitopes detected
15: SseB overlapping library peptide, residues 141–160 (KAALDNDANRNTDLMSQGQI) [Peptide 15]	> 4149	> 278	> 3 333	> 689	57	> 270	> 136	> 145	> 336	–
16: SseB overlapping library peptide, residues 151–170 (NTDLMSQGQITIQKMSQELN) [Peptide 16]	964	> 278	> 3 333	> 689	> 119	> 270	52	> 145	> 336	–
17: SseB overlapping library peptide, residues 161–180 (TIQKMSQELNAVLTQLTGLI) [Peptide 17]	18	> 278	> 3 333	> 689	> 119	> 270	> 136	> 145	8	–
MSSGNILWGSQNPIVFKNSF [Peptide 1]	447	> 278	> 3 333	> 689	> 119	7	3	12	6	–
